Positions of bridges follow the written chain, without caps; N, C: chain ends. No end group written: not given here.
Key:
[1] = target: Vitronectin Receptor (αvβ3) (Homo sapiens, UniProt P05106+P06756); experiment: Vitronectin Receptor (αvβ3) Binding Assay; settings: at 100 μM; 125I-Echistatin, 512P5 cell membranes
osteoclasts = experiment: Osteoclast Pitting Assay; assay type: cell-based; settings: neonatal rat osteoclasts on bovine cortical bone slices
Method: The assay is conduct ed as described in Murrills and Dempster (1990) Bone 11:333-344. Briefly, 4×4×0.2 mm slices of devitalized bovine cortical bone are numbered, placed in the wells of 96-well culture plates and wetted with 100 ul of Medium 199 containing Hanks salts, 10 mM HEPES, pH 7.0 (Medium 199/Hanks). Bone cell suspensions containing osteoclasts are prepared by mincing the long bones of neonatal rats (Sprague-Dawley , 4-6 days old) in Medium 199/Hanks. 100 uL of the suspension are then plated onto each slice and incubated 30 minutes to allow osteoclasts to adhere. The slices are rinsed to remove non-adherent cells and incubated 24 h in Medium 199 containing Earle's salts, 10 mM HEPES and 0.7 g/L NaHCO3, which equilibrates at pH 6.9 in a 5% CO2 atmosphere. At this pH the adherent osteoclasts excavate an adequate number of resorption pits for assay purposes. Slices are fixed in 2.5% glutaraldehyde and osteoclasts counted following tartrate-resistant acid phosphatase staining. […] Resorption pits are quantified by manually counting.
The experiments are conducted according to a block design with osteoclasts from each animal exposed to each treatment. […] Several parameters are recorded on a “per slice” basis: number of pits, number of osteoclasts, number of pits per osteoclast, number of fibroblast-like bone cells. […] IC50s are calculated for active compounds using dose-response curves.

Vitronectin Receptor (αvβ3), sequence (P06756 31-889 limits assumed): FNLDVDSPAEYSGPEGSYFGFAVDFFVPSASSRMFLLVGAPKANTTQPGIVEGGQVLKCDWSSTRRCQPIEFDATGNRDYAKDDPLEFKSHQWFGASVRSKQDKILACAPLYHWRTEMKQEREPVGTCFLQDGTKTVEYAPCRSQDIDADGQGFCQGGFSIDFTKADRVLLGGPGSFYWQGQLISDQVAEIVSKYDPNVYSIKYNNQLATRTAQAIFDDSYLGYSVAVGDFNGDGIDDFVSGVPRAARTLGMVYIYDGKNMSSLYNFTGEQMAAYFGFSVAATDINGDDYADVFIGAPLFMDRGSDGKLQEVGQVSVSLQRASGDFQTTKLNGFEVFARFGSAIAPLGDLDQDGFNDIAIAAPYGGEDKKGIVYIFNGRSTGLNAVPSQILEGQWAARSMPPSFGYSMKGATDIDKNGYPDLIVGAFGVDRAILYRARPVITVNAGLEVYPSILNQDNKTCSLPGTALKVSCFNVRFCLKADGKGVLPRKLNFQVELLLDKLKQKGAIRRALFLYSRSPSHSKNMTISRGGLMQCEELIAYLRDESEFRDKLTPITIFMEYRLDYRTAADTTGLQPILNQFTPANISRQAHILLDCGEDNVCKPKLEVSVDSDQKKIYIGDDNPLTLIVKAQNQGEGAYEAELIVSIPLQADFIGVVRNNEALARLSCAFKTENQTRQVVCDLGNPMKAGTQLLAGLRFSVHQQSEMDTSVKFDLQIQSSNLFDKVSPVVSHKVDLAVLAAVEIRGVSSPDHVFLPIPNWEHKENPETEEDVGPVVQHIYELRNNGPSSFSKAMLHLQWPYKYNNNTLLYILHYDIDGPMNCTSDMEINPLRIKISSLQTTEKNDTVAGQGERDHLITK
Vitronectin Receptor (αvβ3), sequence (P06756 891-1048 limits assumed): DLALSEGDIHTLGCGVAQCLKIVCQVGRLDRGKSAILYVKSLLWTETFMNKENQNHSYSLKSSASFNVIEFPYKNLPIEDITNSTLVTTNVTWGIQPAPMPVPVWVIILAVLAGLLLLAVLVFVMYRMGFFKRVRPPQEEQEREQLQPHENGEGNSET
Vitronectin Receptor (αvβ3), sequence (P05106 27-788): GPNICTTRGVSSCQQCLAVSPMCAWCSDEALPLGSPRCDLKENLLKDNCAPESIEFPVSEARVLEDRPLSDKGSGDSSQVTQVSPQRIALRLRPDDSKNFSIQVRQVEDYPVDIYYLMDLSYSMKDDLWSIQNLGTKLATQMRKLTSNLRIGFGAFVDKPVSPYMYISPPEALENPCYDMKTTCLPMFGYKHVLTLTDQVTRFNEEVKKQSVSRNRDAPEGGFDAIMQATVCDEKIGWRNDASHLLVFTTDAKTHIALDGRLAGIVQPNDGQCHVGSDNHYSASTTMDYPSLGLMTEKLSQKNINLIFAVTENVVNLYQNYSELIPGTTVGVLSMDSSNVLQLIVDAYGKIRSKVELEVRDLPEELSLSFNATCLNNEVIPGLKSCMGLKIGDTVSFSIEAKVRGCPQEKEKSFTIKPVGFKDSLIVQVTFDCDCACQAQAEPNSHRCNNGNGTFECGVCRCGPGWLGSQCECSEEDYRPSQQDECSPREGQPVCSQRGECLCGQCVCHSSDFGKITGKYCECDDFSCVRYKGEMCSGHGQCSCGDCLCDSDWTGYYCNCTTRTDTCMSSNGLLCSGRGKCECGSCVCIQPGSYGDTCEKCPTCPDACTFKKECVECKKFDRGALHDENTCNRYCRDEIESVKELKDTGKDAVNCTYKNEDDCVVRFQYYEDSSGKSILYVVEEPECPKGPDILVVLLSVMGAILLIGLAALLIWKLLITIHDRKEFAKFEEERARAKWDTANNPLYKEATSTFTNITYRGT

Substance | ability to inhibit avb3 binding [1] | osteoclast inhibitory activity (osteoclasts)
GRGESP: reference peptide, structure given by standard single letter designation for amino acids | inactive at 100 μM | –
Calcitonin: reference compound of the osteoclast pitting assay; used as anti-resorptive in the clinic (CGNLSTCMLGTYTQDLNKFHTFPQTSIGVGAP-NH2; disulfide 1-7; ends not checked; UniProt P01257 85-116, looked up) | – | significant osteoclast inhibitory activity
